Reference: patent US9803013B2, “Biological materials and uses thereof” (BioInvent International AB, priority 2005, dated 2017)

Assays:
[1] = test system: MM cells; test: FACS analysis of BI-505 epitope expression on patients' plasma cells; format: binding, human; parameters: key to BI-505 epitope expression Intensity: BI-505 negative cells (−) are B-cells from patient number 8; (+), (++) and (+++) corresponding to patient number 8, 7 and 10; (+), (++) and (+++) corresponding to patient number 8, 7 and 10; (+), (++) and (+++) corresponding to patient number 8, 7 and 10; conditions: for BI-505 epitope expression Intensity: FACS on MM cells
Source text: (FIG. 16A) Analysis of myeloma cells in bone marrow from multiple myeloma patients by flow cytometry. Myeloma cells were gated based on expression of CD138, CD38, CD56 and CD45 according to international guidelines (Rawstron et al., 2008). Furthermore, intracellular staining was used to confirm monoclonal expression by K and A staining. B1-505 epitope expression was categorized as shown in the histogram (right position) with (+), (++) and (+++) corresponding to patient number 8, 7 and 10. BI-505 negative cells (−) are B-cells from patient number 8.
It was next evaluated the expression of the BI-505 epitope on bone marrow cells in patients with MM and related diseases (plasmacytoma, plasma cell leukemia, and light chain amyloidosis) by flow cytometry (FIG. 15 and Table 4). Myeloma cells were identified using fluorescent antibodies against surface antigens CD38, CD138, CD45 and CD56 (FIG. 16A) according to European Myeloma Network guidelines on multiparametric flow cytometry in MM (Rawstron et al., 2008) and confirming monoclonal MM cells with intracellular staining of λ and κ light chains. All MM patients expressed the BI-505 epitope on most (97±4%, mean±SD, patient n=22) myeloma cells (FIG. 15 and Table 4). The BI-505 epitope was generally very highly expressed on these cells, with median expression level 10 times higher than on normal B cells from the same patients. Similar results were obtained with a commercially available anti-ICAM-1 antibody (data not shown). Furthermore, the BI-505 epitope was highly expressed on myeloma cells in a patient in relapse who had received several different lines of therapy (FIG. 16B). Thus, ICAM-1 and the BI-505 epitope are strongly expressed on the surface of MM plasma cells.
Plasma cell surface expression of ICAM-1 and the BI-505 epitope was analyzed by FACS. Bone marrow aspirates were obtained from 29 patients diagnosed with MM or related diseases at the Department of Hematology, Skånes University Hospital, Lund. All human samples were collected using protocols approved by the Ethics Committee of Skåne University Hospital, and informed consent was obtained from all patients.
Bone marrow aspirates from 29 patients diagnosed with MM or related diseases (plasmocytoma, plasma cell leukemia, or amyloid light chain amyloidosis) at the Department of Hematology, Skånes University Hospital, Lund were analyzed by flow cytometry using 4 cocktails of antibodies, each suitable for recognizing plasma cells (Figure S3) after informed consent and with the approval of the local ethical committee. Clinical data were obtained from patients' charts.

[2] = target: T1, human FcγRIIIa (Homo sapiens, UniProt P08637); test: BiaCore analysis of BI-505 Fc-variant binding to FcγR
T1 construct: made in house; host or cells: HEK293E cells (transient)
Protocol: (FIG. 20C) BiaCore analysis of BI-505 Fc-variant antibodies binding to human FcγRIIIa.
His-tagged human FcγRIIIa and mouse FcγRIV were transiently expressed in HEK293E cells, purified using Ni-NTA chromatography, and characterized by SDS-PAGE and/or Biacore. Surface plasmon resonance (SPR) measurements were performed using a Biacore 3000 instrument. Goat F(ab)′2 α-human-F(ab)′2 fragments (Jackson Laboratories) were immobilized with a CM-5 chip using a standard amine coupling protocol. BI-505 (IgG1) and IgG4 or IgG1 297Q variants of BI-505 were diluted to 15 and 60 μg/mL respectively and added to the surface at 10 μL/min for 3 min. His-tagged human FcγRIIIa or mouse FcγRIV was pre-incubated with an α-HIS antibody (R&D Systems) at a 2:1 molar ratio before addition to the chip surface, 30 μL/min, for 1 min. After each cycle the surface was regenerated twice with glycine buffer pH 1.7.

T1 sequence (P08637 17-254): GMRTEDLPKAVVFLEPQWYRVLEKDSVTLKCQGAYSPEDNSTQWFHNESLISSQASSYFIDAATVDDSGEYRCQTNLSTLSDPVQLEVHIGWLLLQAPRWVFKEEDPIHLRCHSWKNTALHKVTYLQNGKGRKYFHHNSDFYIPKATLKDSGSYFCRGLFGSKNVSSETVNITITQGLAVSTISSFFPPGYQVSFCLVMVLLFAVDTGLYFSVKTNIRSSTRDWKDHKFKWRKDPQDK

B1: B11: fully human IgG1 antibody specific for ICAM-1; VH and VL sequences of FIG. 10 (SEQ ID NOs. 6 and 8) (antibody, listed as Homo sapiens, V domains shown)
VH: EVQLLESGGGLVQPGGSLRLSCAASGFTFSNAWMSWVRQAPGKGLEWVAFIWYDGSNKYYADSVKGRFTISRDNSKNTLYLQMNSLRAEDTAVYYCARYSGWYFDYWGQGTLVTVSS
VL: QSVLTQPPSASGTPGQRVTISCTGSSSNIGAGYDVHWYQQLPGTAPKLLIYDNNNRPSGVPDRFSGSKSGTSASLAISGLRSEDEADYYCQSYDSSLSAWLFGGGTKLTVLG
myeloma cells expressing the BI-505 epitope ([1]; all MM patients, mean±SD, patient n=22): 97±4%
BI-505 epitope expression Positive cells (%) ([1]; patient 1, MM): 98%
BI-505 epitope expression Intensity ([1]; patient 1, MM): +++
BI-505 epitope expression Positive cells (%) ([1]; patient 2, MM): 97%
BI-505 epitope expression Intensity ([1]; patient 2, MM): +++
BI-505 epitope expression Positive cells (%) ([1]; patient 3, MM): 100%
BI-505 epitope expression Positive cells (%) ([1]; patient 4, nsMM): 100%
BI-505 epitope expression Intensity ([1]; patient 4, nsMM): +++
BI-505 epitope expression Positive cells (%) ([1]; patient 5, MM): 100%
BI-505 epitope expression Intensity ([1]; patient 5, MM): ++
BI-505 epitope expression Positive cells (%) ([1]; patient 6, MM): 98%
BI-505 epitope expression Intensity ([1]; patient 6, MM): +++
BI-505 epitope expression Positive cells (%) ([1]; patient 7, MM): 98%
BI-505 epitope expression Intensity ([1]; patient 7, MM): +++
BI-505 epitope expression Positive cells (%) ([1]; patient 8, MM): 100%
BI-505 epitope expression Intensity ([1]; patient 8, MM): +++
BI-505 epitope expression Positive cells (%) ([1]; patient 9, MM): 100%
BI-505 epitope expression Intensity ([1]; patient 9, MM): ++
BI-505 epitope expression Positive cells (%) ([1]; patient 10, MM): 95%
BI-505 epitope expression Intensity ([1]; patient 10, MM): +
BI-505 epitope expression Positive cells (%) ([1]; patient 11, MM): 100%
BI-505 epitope expression Intensity ([1]; patient 11, MM): +++
BI-505 epitope expression Positive cells (%) ([1]; patient 12, nsMM): 95%
BI-505 epitope expression Positive cells (%) ([1]; patient 13, MM): 100%
BI-505 epitope expression Intensity ([1]; patient 13, MM): +++
BI-505 epitope expression Positive cells (%) ([1]; patient 14, MM): 100%
BI-505 epitope expression Intensity ([1]; patient 14, MM): +++
BI-505 epitope expression Positive cells (%) ([1]; patient 15, MM): 100%
BI-505 epitope expression Intensity ([1]; patient 15, MM): +++
BI-505 epitope expression Positive cells (%) ([1]; patient 16, MM): 88%
BI-505 epitope expression Intensity ([1]; patient 16, MM): ++
BI-505 epitope expression Positive cells (%) ([1]; patient 17, MM): 100%
BI-505 epitope expression Intensity ([1]; patient 17, MM): +++
BI-505 epitope expression Positive cells (%) ([1]; patient 18, MM): 100%
BI-505 epitope expression Intensity ([1]; patient 18, MM): +++
BI-505 epitope expression Positive cells (%) ([1]; patient 19:1, MM): 93%
BI-505 epitope expression Intensity ([1]; patient 19:1, MM): +++
BI-505 epitope expression Positive cells (%) ([1]; patient 19:2, MM): 95%
BI-505 epitope expression Intensity ([1]; patient 19:2, MM): +++
BI-505 epitope expression Positive cells (%) ([1]; patient 19:3, MM): 91%
BI-505 epitope expression Intensity ([1]; patient 19:3, MM): +++
BI-505 epitope expression Positive cells (%) ([1]; patient 20, MM): 100%
BI-505 epitope expression Intensity ([1]; patient 20, MM): +++
BI-505 epitope expression Positive cells (%) ([1]; patient 21, MM): 93%
BI-505 epitope expression Intensity ([1]; patient 21, MM): +++
BI-505 epitope expression Positive cells (%) ([1]; patient 22, MM): 86%
BI-505 epitope expression Intensity ([1]; patient 22, MM): +++
BI-505 epitope expression Positive cells (%) ([1]; patient 23, AL): 97%
BI-505 epitope expression Intensity ([1]; patient 23, AL): ++
BI-505 epitope expression Positive cells (%) ([1]; patient 24, AL): 100%
BI-505 epitope expression Intensity ([1]; patient 24, AL): +++
BI-505 epitope expression Positive cells (%) ([1]; patient 25, LCDD/MM): 98%
BI-505 epitope expression Intensity ([1]; patient 25, LCDD/MM): +++
BI-505 epitope expression Positive cells (%) ([1]; patient 26, PCL): 76%
BI-505 epitope expression Intensity ([1]; patient 26, PCL): +++
BI-505 epitope expression Positive cells (%) ([1]; patient 27, PCL): 77%
BI-505 epitope expression Intensity ([1]; patient 27, PCL): +
BI-505 epitope expression Positive cells (%) ([1]; patient 28, PC): 93%
BI-505 epitope expression Intensity ([1]; patient 28, PC): +++
BI-505 epitope expression Positive cells (%) ([1]; patient 29, PC): 100%
BI-505 epitope expression Intensity ([1]; patient 29, PC): +++
increase of mean BI-505 expression in myeloma cells after first relapse ([1]; patient, bone marrow number 2 versus diagnosis): two-fold
binding to human FcγR [2]: bound to human FcγR
